Experimental findings from US20230272056A1 (Merck Sharp & Dohme, published 2023) are described below.

Numbering of substitutions follows the chain as printed. Names may count otherwise.

The target of this test is T1, human LAP-TGFB1 Fc fusion (human).
T1 construct: also called human LAP-TGFβ1-Fc; human LAP-TGFβ-Fc isoform 1
Kind of test: BLI off-rate screen. The method, then: The Fab mutants including a positive control, 20E6 Fab, and a negative control Fab (Molecular Innovations, catalog HU-FAB-4510) were diluted to 200 nM in assay buffer and loaded to FAB2G sensors for 180 seconds followed by a one-hour incubation at room temperature in assay buffer to equilibrate the tips. The Fab loaded sensors were assessed for binding with 100 nM human LAP-TGFβ for 180 seconds followed by a 180 second dissociation phase in assay buffer on a ForteBio HTX (software version 9.0.0.66). Non-specific binding to the negative control Fab was subtracted and the binding sensorgrams were aligned to the start of the association phase on the X and Y axis. The Fab binding was fit with the 1:1 binding model, dissociation phase only, with local fitting using ForteBio Data Analysis 9.0 software.
Twenty-three variants containing a single tyrosine substitution in the light chain CDRs (at one of amino acid positions 24-31, 33, 34, 51-56, and 89-95 according to Kabat numbering scheme) and 21 similar heavy chain CDR variants (at amino acids positions 28-31, 33-35, 50-58 including 52a, 95, 96, 98, and 99 according to Kabat numbering scheme) were generated according to FIG. 1 and listed in Table 6 and their interactions with human LAP-TGFb1 were analyzed by ForteBio interferometry. […] In those sequences the VL is correct, even though these sequences are from the heavy chain. Thus, the VL_X ##Y refers to the position of the tyrosine mutation within the antibody, regardless of whether the sequence is a heavy or light chain.

T1 sequence (chain, as listed by the source limits assumed): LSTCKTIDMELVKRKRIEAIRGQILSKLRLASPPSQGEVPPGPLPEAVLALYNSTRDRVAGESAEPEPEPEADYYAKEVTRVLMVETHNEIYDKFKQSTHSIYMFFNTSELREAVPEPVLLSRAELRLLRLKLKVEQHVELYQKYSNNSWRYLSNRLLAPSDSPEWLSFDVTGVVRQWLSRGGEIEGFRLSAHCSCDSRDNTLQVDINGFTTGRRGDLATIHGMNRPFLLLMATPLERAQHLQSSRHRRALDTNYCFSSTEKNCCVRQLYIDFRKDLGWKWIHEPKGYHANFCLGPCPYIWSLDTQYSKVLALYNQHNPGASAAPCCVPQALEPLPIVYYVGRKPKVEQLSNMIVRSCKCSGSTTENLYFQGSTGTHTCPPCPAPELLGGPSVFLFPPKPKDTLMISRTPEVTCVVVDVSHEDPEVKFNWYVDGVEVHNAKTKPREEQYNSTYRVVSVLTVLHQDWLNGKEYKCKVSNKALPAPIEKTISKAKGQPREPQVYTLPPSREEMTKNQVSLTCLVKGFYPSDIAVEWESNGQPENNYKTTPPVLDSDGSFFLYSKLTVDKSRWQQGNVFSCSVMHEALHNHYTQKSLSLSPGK

B1: VH D52Y (77BIT) (Fab, V domains shown)
VH: EVQLVQSGAEVKKPGASVKVSCKASGYTFTSYWMHWVRQAPGQGLEWMGRIYPQSGGIKYAQKFQGRATLTVDTSTSTAYMELSRLRSDDTAVYYCARWDYGGYFDVWGQGTLVTVSS
VL: DIQMTQSPSSLSASVGDRVTITCRASQDITNYLNWYQQKPGKAVKLLIYYTSRLHSGVPSRFSGSGSGTDYTLTISSLQPEDFATYFCQQGDTLPWTFGQGTKLEIKR
As to B1, the Binding response was 0.042 nm and the binding result is reported as “no binding (tested: 100 nM antigen)”.

B2: VH I57Y (83BIT) (Fab, V domains shown)
VH: B1 VH with Y52D, I58Y
VL: B1 VL
For B2, the Binding response was determined as 0.555 nm, the Fold change was 1 fold and the koff came to 0.043 s⁻¹.

B3: VL A25Y (39BIT) (Fab, V domains shown)
VH: B1 VH with Y52D
VL: B1 VL with A25Y
As to B3, the Binding response came out at 0.043 nm and the binding result was “no binding (tested: 100 nM antigen)”.

B4: VH T28Y (67BIT) (Fab, V domains shown)
VH: B1 VH with T28Y, Y52D
VL: B1 VL
The molecule B4 yielded a Binding response of 0.326 nm, a Fold change of 1.2 fold and an off-rate (koff) of 0.0343 s⁻¹.

B5: VH W33Y (71BIT) (Fab, V domains shown)
VH: B1 VH with W33Y, Y52D
VL: B1 VL
The molecule B5 came in with a Binding response of 0.77 nm, a Fold change of 1.8 fold and a koff of 0.023 s⁻¹.

B6: VL H55Y (52BIT) (Fab, V domains shown)
VH: B1 VH with Y52D
VL: B1 VL with H55Y
With B6, the Binding response was found to be 0.265 nm, the Fold change stood at 1.1 fold and the koff came to 0.0385 s⁻¹.

B7: VL G91Y (56BIT) (Fab, V domains shown)
VH: B1 VH with Y52D
VL: B1 VL with G91Y
For B7, the Binding response is 0.044 nm and the binding result was “no binding (tested: 100 nM antigen)”.

B8: VL D92Y (57BIT) (Fab, V domains shown)
VH: B1 VH with Y52D
VL: B1 VL with D92Y
With B8, the Binding response worked out at 0.046 nm and the binding result is “no binding (tested: 100 nM antigen)”.

B9: VH F29Y (68BIT) (Fab, V domains shown)
VH: B1 VH with F29Y, Y52D
VL: B1 VL
B9 registered a Binding response of 0.597 nm, a Fold change of 1.3 fold and a koff of 0.0336 s⁻¹.

B10: VH G98Y (65BIT) (Fab, V domains shown)
VH: B1 VH with Y52D, G102Y
VL: B1 VL
In the case of B10, the Binding response amounted to 0.037 nm and the binding result was “no binding (tested: 100 nM antigen)”.

B11: VH G55Y (81BIT) (Fab, V domains shown)
VH: B1 VH with Y52D, G56Y
VL: B1 VL
Turning to B11, the Binding response is 0.542 nm, the Fold change was 1.2 fold and the dissociation rate constant (koff) was determined as 0.036 s⁻¹.

B12: VL I29Y (43BIT) (Fab, V domains shown)
VH: B1 VH with Y52D
VL: B1 VL with I29Y
Molecule B12 yielded a Binding response of 0.071 nm, a Fold change of 1.6 fold and a koff of 0.0264 s⁻¹.

B13: VH S54Y (80BIT) (Fab, V domains shown)
VH: B1 VH with Y52D, S55Y
VL: B1 VL
B13 came in with a Binding response of 0.588 nm, a Fold change of 1 fold and a koff of 0.0406 s⁻¹.

B14: VH W95Y (88BIT) (Fab, V domains shown)
VH: B1 VH with Y52D, W99Y
VL: B1 VL
B14 came in with a Binding response of 0.638 nm, a Fold change of 1 fold and a koff of 0.0425 s⁻¹.

B15: VH T30Y (69BIT) (Fab, V domains shown)
VH: B1 VH with T30Y, Y52D
VL: B1 VL
Turning to B15, the Binding response turned out to be 0.372 nm, the Fold change was 1.2 fold and the off-rate constant (koff) came to 0.0365 s⁻¹.

B16: VL L33Y (46BIT) (Fab, V domains shown)
VH: B1 VH with Y52D
VL: B1 VL with L33Y
Turning to B16, the Binding response was 0.095 nm, the Fold change came out at 1 fold and the koff worked out at 0.0413 s⁻¹.

B17: VH I51Y (76BIT) (Fab, V domains shown)
VH: B1 VH with I51Y, Y52D
VL: B1 VL
For the molecule B17, the Binding response amounted to 0.6 nm, the Fold change came out at 1.1 fold and the koff was 0.0379 s⁻¹.

B18: VL D28Y (42BIT) (Fab, V domains shown)
VH: B1 VH with Y52D
VL: B1 VL with D28Y
With B18, the Binding response worked out at 0.207 nm, the Fold change was 1.3 fold and the koff amounted to 0.0318 s⁻¹.

B19: VH H35Y (73BIT) (Fab, V domains shown)
VH: B1 VH with H35Y, Y52D
VL: B1 VL
For B19, the Binding response turned out to be 0.334 nm, the Fold change was found to be 0.9 fold and the koff worked out at 0.0471 s⁻¹.

B20: VH G99Y (66BIT) (Fab, V domains shown)
VH: B1 VH with Y52D, G103Y
VL: B1 VL
Molecule B20 gave a Binding response of 0.055 nm, a Fold change of 0.9 fold and an off-rate constant (koff) of 0.0476 s⁻¹.

B21: VH D96Y (64BIT) (Fab, V domains shown)
VH: B1 VH with Y52D, D100Y
VL: B1 VL
For B21, the Binding response is 0.102 nm, the Fold change is 0.6 fold and the koff stood at 0.0746 s⁻¹.

B22: VH P52aY (78BIT) (Fab, V domains shown)
VH: B1 VH with Y52D, P53Y
VL: B1 VL
On to B22, for which the Binding response was 0.566 nm, the Fold change amounted to 0.9 fold and the koff came to 0.0454 s⁻¹.

B23: VH Q53Y (79BIT) (Fab, V domains shown)
VH: B1 VH with Y52D, Q54Y
VL: B1 VL
The molecule B23 came in with a Binding response of 0.625 nm, a Fold change of 1 fold and a koff of 0.0416 s⁻¹.

B24: VH G56Y (82BIT) (Fab, V domains shown)
VH: B1 VH with Y52D, G57Y
VL: B1 VL
For the molecule B24, the Binding response amounted to 0.569 nm, the Fold change turned out to be 1 fold and the off-rate constant (koff) was determined as 0.0436 s⁻¹.

B25: VL L54Y (51BIT) (Fab, V domains shown)
VH: B1 VH with Y52D
VL: B1 VL with L54Y
On to B25, for which the Binding response came out at 0.299 nm, the Fold change came out at 1 fold and the koff turned out to be 0.0405 s⁻¹.

B26: VH M34Y (72BIT) (Fab, V domains shown)
VH: B1 VH with M34Y, Y52D
VL: B1 VL
With B26, the Binding response turned out to be 0.623 nm, the Fold change was found to be 1 fold and the koff came out at 0.0414 s⁻¹.

B27: VH R50Y (75BIT) (Fab, V domains shown)
VH: B1 VH with R50Y, Y52D
VL: B1 VL
notes: also called VH RSOY (75BIT)
Take B27: the Binding response is 0.324 nm, the Fold change stood at 0.9 fold and the koff was determined as 0.0445 s⁻¹.

B28: VH K58Y (84BIT) (Fab, V domains shown)
VH: B1 VH with Y52D, K59Y
VL: B1 VL
For B28, the Binding response was determined as 0.339 nm, the Fold change came to 1.3 fold and the koff worked out at 0.0327 s⁻¹.

B29: VH S31Y (70BIT) (Fab, V domains shown)
VH: B1 VH with S31Y, Y52D
VL: B1 VL
Molecule B29 registered a Binding response of 0.696 nm, a Fold change of 1.2 fold and a koff of 0.0361 s⁻¹.
